Measured values reported in patent US20250282879A1 (CILAG GMBH INTERNATIONAL, published 2025).
Read-outs that look alike come from different tables or passages of the source. Blank lines part the entries; values can stand above or below the binder they belong to.

Key:
[1] = target: T1, human IL-4R (form not stated) (human, UniProt P24394 26-232, limits assumed); test: competition ELISA, hIL-4/IL-4R (plate of PRO1899)
T1 construct: whole entry named; also called hIL-4R

[2] = target: T1, human IL-4R (form not stated); test: competition ELISA, hIL-4/IL-4R (plate of PRO1898)
[3] = target: T2, human IL-4R on cells (HEK-Blue IL-4/IL-13 cells, human PBMC, human whole blood) (human, UniProt P24394 26-825); test: cell-based or functional assay
[4] = target: T3, recombinant human IL-31 protein (Peprotech) (human, UniProt Q6EBC2 24-164); test: competitive ELISA, hIL-31/hIL-31RA
T3 construct: also called hIL-31
T3 sequence (looked up): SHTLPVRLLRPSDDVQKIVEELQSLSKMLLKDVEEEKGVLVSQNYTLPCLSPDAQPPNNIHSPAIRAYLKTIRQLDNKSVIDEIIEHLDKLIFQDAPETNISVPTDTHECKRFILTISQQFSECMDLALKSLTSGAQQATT
Procedure: Potency of the two humanized scFvs was further determined using a competitive ELISA. The potency of each scFv to inhibit the interaction between human IL-31 and human IL-31RA was assessed by an ELISA using the same procedure as described in EP20216938.9.

[5] = target: T3, recombinant human IL-31 protein …; test: cell-based or functional assay
human IL-31-His [6] = target: T4, human IL-31-His (human, UniProt Q6EBC2 24-164); test: SPR, IL-31-His captured, scFv analyte, full titration mode
T4 construct: captured via an anti-His tag antibody; also called human IL-31 (scFv SPR); not shown: His tag
T4 sequence (looked up): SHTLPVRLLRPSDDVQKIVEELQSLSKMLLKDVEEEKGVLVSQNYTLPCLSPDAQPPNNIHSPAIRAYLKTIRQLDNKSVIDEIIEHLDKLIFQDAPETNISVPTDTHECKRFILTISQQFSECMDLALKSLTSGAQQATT

[7] = target: T3, recombinant human IL-31 protein …; test: cell-based or functional assay; remark: listed apart in the source
human IL-31-His [8] = target: T4, human IL-31-His; test: SPR, IL-31-His captured, scFv analyte, screening mode
Procedure: (§1) Affinity of the two humanized scFvs to human and cynomolgus IL-31 was determined by SPR analysis on a T200 device (Biacore, GE Healthcare). Cynomolgus IL-31 was manufactured on demand by Sino Biological since it was not available commercially. Human and cynomolgus IL-31-His was captured via an anti-His tag antibody coupled to a carboxylmethylated dextran surface and the scFvs were injected as analyte. After each analyte injection cycle the sensor chip was regenerated and new antigen was captured. The scFvs were measured using a dose response multi-cycle kinetic assay in a high-throughput mode with two concentrations (30 and 10 nM) diluted in running buffer. Obtained sensorgrams were fitted using a 1:1 binding model.

human IL-31-His [9] = target: T4, human IL-31-His; test: SPR, IL-31-His captured, scFv analyte (30 and 10 nM)
Procedure: as §1
Affinity of PRO1643 and of the optimized anti-IL-31 scFvs to human IL-31 was determined by SPR analysis on a T200 device (Biacore, GE Healthcare), as described above in section 2.2.2. The scFvs were measured using a dose response multi-cycle kinetic assay in a high-throughput mode with two concentrations (30 and 10 nM) diluted in running buffer. Obtained sensorgrams were fitted using a 1:1 binding model.

[10] = target: T2, human IL-4R on cells (HEK-Blue …); test: cell-based or functional assay; remark: listed apart in the source
[11] = target: T5, cynomolgus IL-4R on transfected HEK293T cells (cynomolgus monkey, UniProt A0A2K5V580 33-832); test: flow cytometry, transfected HEK293T cells
T5 construct: whole, on cells; also called cynomolgus IL-4R-expressing HEK293T cells; not shown: V5 Tag fused to the N-terminus of the expression construct
T5 sequence (A0A2K5V580 entry or part of it): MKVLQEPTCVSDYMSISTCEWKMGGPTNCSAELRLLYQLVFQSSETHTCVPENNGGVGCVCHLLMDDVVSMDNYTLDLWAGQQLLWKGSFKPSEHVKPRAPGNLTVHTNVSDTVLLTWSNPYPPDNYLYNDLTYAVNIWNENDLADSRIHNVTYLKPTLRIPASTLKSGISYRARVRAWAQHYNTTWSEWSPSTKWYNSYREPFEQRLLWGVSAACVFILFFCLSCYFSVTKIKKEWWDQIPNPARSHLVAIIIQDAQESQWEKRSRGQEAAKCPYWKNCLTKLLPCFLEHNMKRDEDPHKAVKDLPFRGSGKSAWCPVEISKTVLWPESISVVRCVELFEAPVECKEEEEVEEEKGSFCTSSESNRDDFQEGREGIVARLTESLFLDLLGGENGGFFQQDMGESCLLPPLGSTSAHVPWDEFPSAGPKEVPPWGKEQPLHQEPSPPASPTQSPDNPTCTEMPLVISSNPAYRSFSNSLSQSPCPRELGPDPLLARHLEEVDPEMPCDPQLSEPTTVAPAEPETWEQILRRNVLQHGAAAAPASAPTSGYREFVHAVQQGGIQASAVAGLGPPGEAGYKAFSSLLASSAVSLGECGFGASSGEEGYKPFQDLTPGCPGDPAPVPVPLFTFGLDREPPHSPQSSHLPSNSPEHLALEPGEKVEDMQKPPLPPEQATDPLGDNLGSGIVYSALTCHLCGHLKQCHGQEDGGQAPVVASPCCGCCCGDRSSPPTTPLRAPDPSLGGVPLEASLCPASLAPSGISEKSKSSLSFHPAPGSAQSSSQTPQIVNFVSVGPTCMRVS
Excerpt: (§2) To test binding of the Morrison-H and Morrison-L antibodies PRO2198, PRO2199, PRO2206 and PRO2207 to human or cynomolgus IL-4R-expressing HEK293T cells, HEK293T cells were transfected with human and cynomolgus IL-4R plasmids and mock plasmid using Lipofectamine3000. Binding of an antibody targeting V5 Tag, which is fused to the N-terminus of human and cynomolgus IL-4R expression constructs, would confirm successful expression of both targets and was thus used as a positive control for plasma membranous binding. The Morrison-H molecule PRO2077 was used as negative control for cynomolgus IL-4R binding since this molecule had not shown any cross-reactivity to cynomolgus IL-4R (see section 5.3.).
(§3) 50,000 transfected HEK293T cells per well were seeded in a 96-well plate. 5-fold serial dilutions of the Morrison-H and Morrison-L antibodies PRO2198, PRO2199, PRO2206 and PRO2207 and of the control molecule PRO2077, which is not cross-reactive to cynomolgus IL-4R, were added at concentrations ranging from 5,000 to 0.32 ng/ml to the plates and incubated for 60 min at 4° C. on a shaker. Supernatants were removed and detection reagent was added for flow cytometry analysis. The geometric mean of the APC fluorescence intensity of single cells was calculated.

[12] = target: T6, human IL-4R on transfected HEK293T cells (human, UniProt P24394 26-825); test: flow cytometry, transfected HEK293T cells
T6 construct: whole, on cells; also called human IL-4R-expressing HEK293T cells; not shown: V5 Tag fused to the N-terminus of the expression construct
Excerpt: as §2, §3

[13] = target: T2, human IL-4R on cells (HEK-Blue …); test: cell-based or functional assay; remark: listed apart in the source
[14] = target: T2, human IL-4R on cells (HEK-Blue …); test: cell-based or functional assay; remark: listed apart in the source
[15] = target: T7, recombinant cynomolgus monkey IL-31 (ECD with His Tag, Sino Biological) (cynomolgus monkey); test: SPR, Morrison captured on immobilized human IL-4R-Fc, IL-31 analyte
T7 construct: manufactured on demand by Sino Biological; also called cynomolgus IL-31-His; cyno IL-31

[16] = target: T3, recombinant human IL-31 protein …; test: cell-based or functional assay; remark: listed apart in the source
[17] = target: T3, recombinant human IL-31 protein …; test: cell-based or functional assay; remark: listed apart in the source
[18] = target: T7, recombinant cynomolgus monkey IL-31 …; test: cell-based or functional assay
[19] = target: T2, human IL-4R on cells (HEK-Blue …); test: cell-based or functional assay; remark: listed apart in the source
[20] = target: T8, recombinant human IL-4R protein (ECD with His Tag, Sino Biological) (human, UniProt P24394 26-232); test: SPR, Morrison captured via anti-human IgG-Fc, IL-4R ECD-His analyte
T8 construct: extracellular domain; bought; also called human IL-4R ECD; not shown: His Tag
Procedure: (§4) Binding kinetics (including affinity) of the bispecific Morrison-H (PRO2198, PRO2199) and Morrison-L (PRO2206, PRO2207) molecules to recombinant human IL-4R protein (ECD with His Tag, Sino Biological) were determined by SPR analysis on a T200 device (Biacore, Cytiva). In this SPR experiment, Morrison molecules were captured via an anti-human IgG-Fc antibody (Human Antibody Capture Kit; Biacore, Cytiva) covalently immobilized to a carboxylmethylated dextran surface (CM5 sensorchip; Biacore, Cytiva) and a titration series of human IL-4R ECD was injected as analyte. After each analyte injection cycle, the sensor chip was regenerated (MgCl₂), and new Morrison antibody was subsequently re-captured. […] The apparent dissociation (kd) and association (kₐ) rate constants and the apparent dissociation equilibrium constant (KD) were calculated with the Biacore analysis software (Biacore Evaluation software Version 3.2, Cytiva) using one-to-one Langmuir binding model and quality of the fits was monitored based on Chi2 and U-value, which are measures for the quality of the curve fitting. The binding level was calculated as the maximum stability binding achieved normalized to the theoretical Rmax. Cross-reactivity to cynomolgus monkey IL-4R was measured using the same setup as for the analysis of human IL-4R kinetics, with the difference that recombinant cynomolgus monkey IL-4R (ECD with His-tag, Acro Biosystems) protein was used as analyte instead of human IL-4R.

[21] = target: T9, recombinant cynomolgus monkey IL-4R (ECD with His-tag, Acro Biosystems) (cynomolgus monkey, UniProt A0A2K5V556 26-232); test: as above
T9 construct: bought; also called cynomolgus IL-4R
T9 sequence (A0A2K5V556 entry or part of it limits assumed): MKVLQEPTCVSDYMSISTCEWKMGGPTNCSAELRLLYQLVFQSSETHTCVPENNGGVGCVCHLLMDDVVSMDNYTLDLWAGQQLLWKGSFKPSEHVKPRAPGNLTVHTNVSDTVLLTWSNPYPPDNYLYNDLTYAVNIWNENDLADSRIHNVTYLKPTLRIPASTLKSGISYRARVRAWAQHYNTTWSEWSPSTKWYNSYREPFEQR
Procedure: as §4

IC50 [1]: 6.18 ng/mL | IC50 [2]: 6.78 ng/mL | IC50, neutralization of hIL-4 induced signaling, stat-6 reporter gene assay [3]: 1.15 ng/mL | IC50, neutralization of hIL-13 induced signaling, stat-6 reporter gene assay [3]: 1 ng/mL
B1: dupilumab (antibody, V domains shown)
VH: EVQLVESGGGLEQPGGSLRLSCAGSGFTFRDYAMTWVRQAPGKGLEWVSSISGSGGNTYYADSVKGRFTISRDNSKNTLYLQMNSLRAEDTAVYYCAKDRLSITIRPRYYGLDVWGQGTTVTVSS
VL: DIVMTQSPLSLPVTPGEPASISCRSSQSLLYSIGYNYLDWYLQKSGQSPQLLIYLGSNRASGVPDRFSGSGSGTDFTLKISRVEAEDVGFYYCMQALQTPYTFGQGTKLEIKR

IC50 [4]: 4.58 ng/mL | IC50, neutralization of hIL-31-induced signaling in IL-31RA/OSMR dimerization assay [5]: 11.1 ng/mL | Kd (human IL-31-His [6]): 0.63 nM | koff (human IL-31-His [6]): 0.000516 s⁻¹ | kon (human IL-31-His [6]): 820000 M⁻¹ s⁻¹ | IC50, neutralization of hIL-31-induced signaling in IL-31RA/OSMR dimerization assay [7]: 8.08 ng/mL | Kd (human IL-31-His [8]): 0.505 nM | koff (human IL-31-His [8]): 0.000447 s⁻¹ | kon (human IL-31-His [8]): 884000 M⁻¹ s⁻¹ | Kd (human IL-31-His [9]): 1.13 nM | koff (human IL-31-His [9]): 0.000653 s⁻¹ | kon (human IL-31-His [9]): 579000 M⁻¹ s⁻¹
B2: PRO1643 (scFv, V domains shown)
VH: QSQLVESGGGLVQPGGSLRLSCAASGFSFSANYWICWVRQAPGKGLEWIVCIYIGSRADTYYAPWAKGRFTISKDNSKNTVYLQMNSLRAEDTAVYFCARFSSGIYDLDRFFLWGQGTLVTVSS
V domain: AFQLTQSPSSLSASVGDRVTITCQASQSIDSWLAWYQQKPGKPPKLLIYQASKLASGVPSRFSGSGSGTDYTLTISSLQPEDFATYYCQTYYGGGHIGWGFGTGTKVTV
notes: anti-IL-31 scFv, full graft; VL entry ends with LCDR3 (no FR4); also called 50-09-D07-sc03

Mean IC50, human IL-13-induced signaling, stat-6 reporter gene assay [10]: 0.0221 nM | EC50 [11]: 0.97 nM | EC50 [12]: 1.11 nM | IC50, IL-4-induced TARC secretion in human whole blood [13]: < 0.5 nM | IC50, IL-4-induced CD23 expression, memory B cells [14]: 4.47 nM | IC50, IL-4-induced CD23 expression, monocytes (blood donor 1) [14]: 0.0904 nM | IC50, IL-4-induced CD23 expression, naive B cells [14]: 1.37 nM | Kd [15]: 0.01 nM | Mean IC50, human IL-31-induced signaling, IL-31RA/OSMR dimerization assay [16]: 0.198 nM | IC50 (read off the curve), human IL-31-induced IL-31RA/OSMR dimerization, with an excess of IL-4R extracellular domain in the medium [17]: ~0.2 nM | IC50, cynomolgus IL-31-induced IL-31RA/OSMR dimerization (RLU) [table under the graph] [18]: 0.959 nM | Mean IC50, human IL-4-induced signaling, stat-6 reporter gene assay [19]: 0.0239 nM | Kd [20]: 0.291 nM | koff [20]: 0.000101 s⁻¹ | kon [20]: 352000 M⁻¹ s⁻¹ | Kd [21]: 0.144 nM | koff [21]: 4.9e-05 s⁻¹ | kon [21]: 370000 M⁻¹ s⁻¹
B3: PRO2198 (bispecific antibody, human IgG4 S228P, kappa)
light: DIQMTQSPSSLSARVGDRVTITCQASEDIESYLAWYQQKPGKAPKLLIYRASTLAYGVPSRFSGSGSGRDFTLTISSLQPEDFATYYCLGSSYSTGSNIFGQGTKVEIKRTVAAPSVFIFPPSDEQLKSGTASVVCLLNNFYPREAKVQWKVDNALQSGNSQESVTEQDSKDSTYSLSSTLTLSKADYEKHKVYACEVTHQGLSSPVTKSFNRGEC
heavy: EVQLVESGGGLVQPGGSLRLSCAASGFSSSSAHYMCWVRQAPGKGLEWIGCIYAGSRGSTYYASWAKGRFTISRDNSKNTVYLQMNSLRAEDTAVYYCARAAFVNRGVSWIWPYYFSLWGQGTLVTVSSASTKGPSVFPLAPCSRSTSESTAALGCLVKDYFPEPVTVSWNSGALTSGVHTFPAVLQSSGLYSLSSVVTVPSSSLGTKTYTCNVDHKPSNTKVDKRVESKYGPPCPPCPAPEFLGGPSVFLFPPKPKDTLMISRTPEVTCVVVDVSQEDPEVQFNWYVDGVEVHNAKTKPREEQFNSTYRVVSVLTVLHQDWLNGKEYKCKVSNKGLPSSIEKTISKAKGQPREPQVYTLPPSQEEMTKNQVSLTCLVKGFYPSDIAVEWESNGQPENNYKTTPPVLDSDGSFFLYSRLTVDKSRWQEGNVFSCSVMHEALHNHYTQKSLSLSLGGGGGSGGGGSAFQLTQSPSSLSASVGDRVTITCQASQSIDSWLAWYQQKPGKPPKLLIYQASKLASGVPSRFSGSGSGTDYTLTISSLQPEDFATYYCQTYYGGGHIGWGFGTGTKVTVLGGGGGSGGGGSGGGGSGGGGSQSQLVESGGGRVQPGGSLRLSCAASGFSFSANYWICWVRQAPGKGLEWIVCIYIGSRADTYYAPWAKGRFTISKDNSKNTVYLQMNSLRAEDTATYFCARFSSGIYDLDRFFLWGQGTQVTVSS
notes: IgG4 (S228P) Morrison-H, anti-IL-4R Fab arms, anti-IL-31 scFv on the C-terminus of the heavy chain; tetravalent, bispecific; also called Morrison-H; MorrH
